# Test results: article PMC9784774
# pKd: −log10 of the molar value.
# How the values were obtained:
# [1] = molecular target: recombinant gH/gL/gO trimer (human cytomegalovirus | human cytomegalovirus strain VR1814); experiment: SPR; Biacore X100, CM5 chip, RT, 1:1 binding model; methods: antibody (4 μg/mL) captured by anti-human Fc IgG to about 100 RU, pentamer or trimer in five 2-fold dilutions injected at 30 μL/min, 90 s association, 600 s dissociation (the legend of Fig. 5 tells the reverse orientation)
# MAb MSL-109 = experiment: ELISA; settings: read off a plot
pKd [1],koff [1] [s⁻¹],kon [1] [M⁻¹ s⁻¹],Substance,percent of parent (MAb MSL-109) [%]
7.68,0.00987,476000,MAb MSL-109 (antibody),
,,,recombinant gH/gL/UL128/UL130/UL131A pentamer (wild type) gH:D446A,46
,,,recombinant gH/gL/UL128/UL130/UL131A pentamer (wild type) gH:P171A,6
,,,recombinant gH/gL/UL128/UL130/UL131A pentamer (wild type) gH:W168A,3
